This series concerns the molecule itself. Kind of series: bead aggregation assay.

B1: NcadEC-Fc (Fc fusion)
chain: DWVIPPVNVLENSRKQFPEELVKIQSDKDKSNTLRYSVTGPGADQNPTGLFIIDPISGLLSVTKPLDREHIPNFHLRAHAVDINGNQMENPIDIIINVIDMNDNRPEFTHQIWNGTVDEGAKPGTFVMTVTSQDKDDPNTANGMLRYKILSQTPESPSSNMFTINNKTGKIITVAAGLDREKVPQYTLIIQATDMEGNPTYGLSNTATAVIRLLDVNDNAPEFTRETFHGEVPENRVNVIVTNLTVTDKDEPGTPAWNAVYRIISGDPTGRFSIPTDPVTNEGLVTVVKPVDFEMNRSFMLTVVADNEVPLASGIHRTRQSTATVSIRVIDVNESPNFDPNPKQIKLEEGLPQWSMLTTFTAHDPDRYMQQTISYSKLYDPANWLEIDPNNGRISTIAVLDRESPYVKNNLYNATFMASDNGVPRASGTGTLQIYLLDINDNAPRVFPQEAEVCERPEPNAINITAVDGDLNPNAGPYAFELPNRPSDIRRNWTLTRISGDHAQLSLKISYLESGIYELPISITDSGNLPMSNTTYLRIKVCQCDHHGDCVDMERIMAAGLGTGA
On to B1, for which the binding result is on record as “binds”.

For the origin of these results see paper PMC2995167 (The Journal of Cell Biology, 2010).
